From patent US20090305971A1 (YALE UNIVERSITY, published 2009)

B1: AP-Am-Nogo-B (alkaline phosphatase fusion protein with residues 1-200 at the amino terminus of human Nogo-B) (ligand, UniProt Q9NQC3-2 1-200, looked up)
chain: MEDLDQSPLVSSSDSPPRPQPAFKYQFVREPEDEEEEEEEEEEDEDEDLEELEVLERKPAAGLSAAPVPTAPAAGAPLMDFGNDFVPPAPRGPLPAAPPVAPERQPSWDPSPVSSTVPAPSPLSAAAVSPSKLPEDDEPPARPPPPPPASVSPQAEPVWTPPAPAPAAPPSTPAAPKRRGSSGSVVVDLLYWRDIKKTGV
notes: range 1-200; also called full-length AP-Am-Nogo-B; APNogo200; not shown: placental alkaline phosphatase coding region of vector pcAP-5
B3: Nogo-B receptor (NgBR), endogenous, on human umbilical vein endothelial cells (HUVEC) (receptor)
chain: SWLRVRFGTWNWIWRRCCRAASAAVLAPLGFTLRKPPAVGRNRRHHRHPRGGSCLAAAHHRMRWRADGRSLEKLPVHMGLVITEVEQEPSFSDIASLVVWCMAVGISYISVYDHQGIFKRNNSRLMDEILKQQQELLGLDCSKYSPEFANSNDKDDQVLNCHLAVKVLSPEDGKADIVRAAQDFCQLVAQKQKRPTDLDVDTLASLLSSNGCPDPDLVLKFGPVDSTLGFLPWHIRLTEIVSLPSHLNISYEDFFSALRQYAACEQRLGK
notes: The assays were done on untransfected HUVEC; also called native HUVEC; endogenous NgBR
B6: human Nogo-B receptor (NgBR), expressed from the cloned cDNA on transfected COS-7 or CHO cells (receptor)
chain: SWLRVRFGTWNWIWRRCCRAASAAVLAPLGFTLRKPPAVGRNRRHHRHPRGGSCLAAAHHRMRWRADGRSLEKLPVHMGLVITEVEQEPSFSDIASLVVWCMAVGISYISVYDHQGIFKRNNSRLMDEILKQQQELLGLDCSKYSPEFANSNDKDDQVLNCHLAVKVLSPEDGKADIVRAAQDFCQLVAQKQKRPTDLDVDTLASLLSSNGCPDPDLVLKFGPVDSTLGFLPWHIRLTEIVSLPSHLNISYEDFFSALRQYAACEQRLGK
notes: also called Am-Nogo receptor; Am-NgR

What was measured:
[1] = molecular target: B3; test: AP-fusion binding to HUVEC at 4 C, AP activity read-out, Scatchard plot (FIGS. 4 and 5)
Experimental: (§1) To detect AP-Am-Nogo-B binding, cultures were washed with Hanks' balanced salt solution (HBSS) containing 20 mM HEPES, pH 7.5, and 1 mg/mL BSA (HBH). The plates were then incubated with AP-Am-Nogo-B in DMEM containing 20 mM Hepes, pH 7.5, and 1 mg/mL BSA for 2 hours at 4° C. The bound AP-Am-Nogo-B was detected by using the Blue Substrate kit (Vector Laboratories). The blue staining was examined by using the ODYSSEY Infrared Imaging System (Li-Cor, Lincoln, Nebr.) and confirmed by microscopy. Alternatively, the bound AP-Am-Nogo-B was extracted with Triton X-100, and AP activity was colorimetrically quantified by using p-nitrophenyl phosphate (Sigma) as substrate after heat inactivation of endogenous AP. Non-specific binding was determined by measuring binding in the presence of a 100-fold molar excess of recombinant Am-Nogo-B lacking the AP fusion protein. Specific binding was determined by subtracting the non-specific binding from total binding. For determination of apparent Kd, the binding of AP-Am-Nogo-B was measured in triplicate as described above and the Kd value was quantified by using the Scatchard plot program of GraphPad PRISM (one-site binding, linear regression) using the ratio of bound ligand to free ligand as the y axis and bound ligand (pM) as the x axis.

[2] = molecular target: B6; test: AP-fusion binding to CHO cells transiently transfected with NgBR cDNA, Scatchard plot (FIG. 7)
Experimental: as §1

[3] = molecular target: B1; test: blocking of AP-Am-Nogo-B binding to endothelial cells (FIG. 34)
[4] = molecular target: T1, AP (recombinant alkaline phosphatase alone) (UniProt P05187 23-511); test: surface binding of AP proteins to HUVEC (FIG. 12)
T1 construct: Control protein without a Nogo part; also called AP alone
T1 sequence (P05187 23-511): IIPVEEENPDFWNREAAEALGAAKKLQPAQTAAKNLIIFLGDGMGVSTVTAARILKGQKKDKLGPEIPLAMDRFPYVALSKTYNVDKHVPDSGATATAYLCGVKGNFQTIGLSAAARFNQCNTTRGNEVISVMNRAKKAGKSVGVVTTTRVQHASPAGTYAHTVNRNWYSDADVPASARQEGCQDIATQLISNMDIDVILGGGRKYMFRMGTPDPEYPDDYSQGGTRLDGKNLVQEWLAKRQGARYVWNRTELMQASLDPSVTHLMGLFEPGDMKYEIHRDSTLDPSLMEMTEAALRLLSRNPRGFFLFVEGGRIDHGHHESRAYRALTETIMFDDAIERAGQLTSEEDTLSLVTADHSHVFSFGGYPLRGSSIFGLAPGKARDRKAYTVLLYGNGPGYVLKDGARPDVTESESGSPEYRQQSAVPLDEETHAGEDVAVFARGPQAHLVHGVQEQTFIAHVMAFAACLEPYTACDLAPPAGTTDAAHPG

[5] = molecular target: B3; test: surface binding of AP proteins to HUVEC (FIG. 12)
[6] = molecular target: B6; test: surface binding of AP proteins to CHO cells expressing NgBR (FIG. 11)
[7] = molecular target: B3; test: surface binding of AP proteins to HUVEC (FIG. 15)
[8] = molecular target: B6; test: surface binding of AP proteins to CHO cells expressing NgBR (FIG. 14)
[9] = molecular target: T1, AP (recombinant alkaline phosphatase …); test: AP-fusion binding to COS cells transfected with the NgBR cDNA, AP staining (FIG. 6)
Experimental: as §1, with “axis. […]” for “axis.”

In the case of B1, the Kd [1] is reported as 9.7 nM and the Kd [2] is reported as 2.74 nM.

B2: mFc-ecto (Fc fusion of amino acids 52-116 of NgBR, HA- and heptahistidine-tagged) (Fc fusion)
chain: LGFTLRKPPAVGRNRRHHRHPRGGSCLAAAHHRMRWRADGRSLEKLPVHMGLVITEVEQEPSFSD
notes: Purified from conditioned media of mammalian cells; also called mFc fusion with the NgBR domain; mFc-NgBR-ectodomain; not shown: mFc, the Fc fragment of IgG; HA tag; heptahistidine tag
B2: binds [3].

B3: no binding [4].

B4: AP-Nogo-B (amino acids 1-180) (ligand, UniProt Q9NQC3-2 1-180, looked up)
chain: MEDLDQSPLVSSSDSPPRPQPAFKYQFVREPEDEEEEEEEEEEDEDEDLEELEVLERKPAAGLSAAPVPTAPAAGAPLMDFGNDFVPPAPRGPLPAAPPVAPERQPSWDPSPVSSTVPAPSPLSAAAVSPSKLPEDDEPPARPPPPPPASVSPQAEPVWTPPAPAPAAPPSTPAAPKRRG
notes: range 1-180; Construction not described; also called AP-Nogo-B (1-180); not shown: alkaline phosphatase part of the AP fusion
B4: no binding [5]; no binding [6].

B5: AP-Nogo-A (59-172) (ligand, UniProt Q9NQC3 59-172, looked up)
chain: PAAGLSAAPVPTAPAAGAPLMDFGNDFVPPAPRGPLPAAPPVAPERQPSWDPSPVSSTVPAPSPLSAAAVSPSKLPEDDEPPARPPPPPPASVSPQAEPVWTPPAPAPAAPPST
notes: also called AP-Am-Nogo-A domains; not shown: alkaline phosphatase part of the AP fusion
B5: no binding [7]; no binding [8].

B6: no binding [9].
